The source of these data is US20220125947A1 (published 2022).

To fix the notation:
T1: TCR gamma/delta constant region (TRGDC) (human, UniProt P0CF51 1-173; B7Z8K6 1-153)
T1 chain (looked up) 1: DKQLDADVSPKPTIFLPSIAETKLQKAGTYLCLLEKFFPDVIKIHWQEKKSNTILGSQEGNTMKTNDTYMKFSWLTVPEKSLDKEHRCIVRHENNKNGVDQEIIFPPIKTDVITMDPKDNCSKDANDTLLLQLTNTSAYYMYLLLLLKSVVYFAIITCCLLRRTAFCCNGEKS
T1 chain (looked up) 2: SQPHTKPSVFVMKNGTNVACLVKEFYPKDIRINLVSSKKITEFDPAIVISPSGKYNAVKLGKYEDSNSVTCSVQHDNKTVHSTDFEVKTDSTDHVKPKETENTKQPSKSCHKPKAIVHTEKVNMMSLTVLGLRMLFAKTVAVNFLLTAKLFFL

T2: T cell receptor (TCR) Vγ9 (TRGV9) (human, UniProt Q99603 21-122)
T2 sequence (looked up): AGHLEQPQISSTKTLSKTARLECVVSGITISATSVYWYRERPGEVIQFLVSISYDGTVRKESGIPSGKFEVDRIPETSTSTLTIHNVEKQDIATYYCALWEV

B1: VG9B144 (antibody, human IgG1, lambda, V domains shown)
VH: QVQLVQSGAEVKKPGASVKVSCKASGYTFTGYYMHWMRQAPGQGLEWMGWINPNSGATNKEQKFQGRVTMTRDTSISTAYMELSRLRSDDTAVYYCAREDDAFDVWGQGTMVTVSS
VL: SSELTQDPAVSVALGQTVRITCQGDNLRNYYATWFQQKPGQAPVLVFFGKNNRPSGIPDRFSGSSSGDTASLTITGAQAEDEADYYCNSRDSSGNHVVFGGGTKLTVLG
B2: VG9B369 (antibody, human IgG1, kappa, V domains shown)
VH: EVQLLESGPTLVKPTQTLTLTCTFSGFSLSTIGVGVGWIRQPPGKALEWLSLIYWNDDKRYNPSLKSRLTITKDTSKNQVVLTMTNMDPVDTATYYCAHSHDWVHAFDIWGQGTMVTVSS
VL: DIVMTQSPSSLSASVGDRVTITCQASQDISHYLNWYQQKPGKAPKFLIYDASNLDTGVPSRFSGSGSGTDFTFTISSLQPEDIATYYCQQYDNFPLTFGGGTKVEIKR
B3: VG9B136 (antibody, human IgG1, kappa, V domains shown)
VH: QVQLQQSGPGLVKPSQTLSLTCAISGDSVSSNRAAWNWIRQSPSKGLEWLGRTYYRSKWYNEYAASVKSRMSINPDTSKNQFSLQLNSVTPEDTALYYCARDLWELREACDIWGQGTMVTVSS
VL: DIVMTQSPSFLSTFVGDRVTITCRASQGISSYLAWYQQKPGKVPKLLIYVASTLQSGVPSRFSGSGSGTEFTLTISSLQPEDFATYYCQQLNSYPFTFGPGTKVDIKR
B4: VG9B410 (antibody, human IgG1, kappa)
heavy: not shown
light: DIQMTQSPSSVSASVGDRVTITCRASQGINSWLAWYQQKPGNAPKLLIYAASSLQSGVPSRFSGIGSGTDFIFTISSLQPEDFASYYCQQANSFPWTFGQGTKVEIKRTVAAPSVFIFPPSDEQLKSGTASVVCLLNNFYPREAKVQWKVDNALQSGNSQESVTEQDSKDSTYSLSSTLTLSKADYEKHKVYACEVTHQGLSSPVTKSFNRGEC
B5: VG9B80 (antibody, human IgG1, kappa, V domains shown)
VH: EVQLVQSGGGLVKSGGSLRLSCAASGFTFSTYSMNWVRQAPGKGLEWVSSISSSSSYIFYADSVKGRIIISRDNAKNSLYLQMNSVRADDTAVYYCAKDGELGVFDYWGQGTLVTVSS
VL: EIVLTQSPGTLSLSAGERATLSCRASQSISSSYLAWYQQKPGQAPRVLIYGPSGRATGIPDRFRGSGSGTDFTLTISRLEPEDFAVYYCQQFGRSPLTFGGGTKVEIKR
B6: VG9B46 (antibody, human IgG1, kappa, V domains shown)
VH: EVQLVESGGGLVKPGGSLRLSCEASGFTFSINSMNWVRQAPGKGLEWVSSISSTSDYIFNADSVKGRFTISRDNAKNSLYLQMNSLRAEDTAVYYCVRDDVFGAFDIWGQGTMVTVSS
VL: EIVLTQSPGTLSLSPGERATLSCRTSQSVSRSYLGWYQQKPGQPPRLLIFGSSSRATGIPDRFSGSGSGTDFTLTISRLEPEDFAVYYCQQYSRSPLTFGGGTKVDIKR
B7: VG9B121 (antibody, human IgG1, kappa, V domains shown)
VH: EVQLVESGGGLVKPGGSLRLSCVASGFTFSDYAMDWVRQAPGKGLDWISSISSTSNYIFYADSVKGRFTISRDNAKNSLYLQMNSLRVEDSAVYYCANSYNWNYGGAFDIWGQGTMVTVSS
VL: DIQMTQSPGTLSSSPGERATLSCRASQSVSSSYFAWYQQKPGRAPRLLIYGASSRATGIPDRFSGSGSGTDFTLTISRLEPEDFAVYFCQQYGRSPLTFGGGTKVEIKR
B8: VG9B140 (antibody, human IgG1, kappa, V domains shown)
VH: EVQLVESGGGLVKPGGSLRLSCAGSGFTFRSYDMNWVRQAPGKGLEWVSSISTSSGYIYYADSVKGRFTISRDNAKNSLSLQMNSLRAEDTAVFYCARDRGIAVAGDYYYGMDVWGQGTMVTVSS
VL: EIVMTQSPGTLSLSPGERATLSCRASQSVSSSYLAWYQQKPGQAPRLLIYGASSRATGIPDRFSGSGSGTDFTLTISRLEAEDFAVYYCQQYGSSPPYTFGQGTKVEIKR
B9: VG9B195 (antibody, human IgG1, lambda, V domains shown)
VH: EVQLVESGGGLVKPGGSLRLSCAASGFTFSPYTMNWVRQAPGKGLEWVSSISSSSSYMYYADSVKGRFTISRDNAKNSLYLQMNSLRAEDTAVYYCARDGDLVGPTYYFDYWGQGTLVTVSS
VL: SYELMQPPSVSVSPGQTASITCSGDKLGDKYACWYQQKPGQSPVLVIYQHNKRPSGIPERFSGSNSGKTATLTISGTQAMDEADYYCQAWDSTTVVFGGGTKLTVLG
B10: VG9B429 (antibody, human IgG1, kappa)
heavy: not shown
light: DIQMTQSPSSVSASVGDRVTITCRASQGINSWLAWYQQKPGNAPKLLIYAASSLQSGVPSRFSGIGSGTDFIFTISSLQPEDFASYYCQQANSFPWTFGQGTRLEIKRTVAAPSVFIFPPSDEQLKSGTASVVCLLNNFYPREAKVQWKVDNALQSGNSQESVTEQDSKDSTYSLSSTLTLSKADYEKHKVYACEVTHQGLSSPVTKSFNRGEC
B11: VG9B414 (antibody, human IgG1, kappa)
heavy: not shown
light: EIVMTQSPSSVSASVGDRVTITCRASQGINSWLAWYQQKPGNAPKLLIYAASSLQSGVPSRFSGIGSGTDFIFTISSLQPEDFASYYCQQANSFPWTFGQGTRLEIKRTVAAPSVFIFPPSDEQLKSGTASVVCLLNNFYPREAKVQWKVDNALQSGNSQESVTEQDSKDSTYSLSSTLTLSKADYEKHKVYACEVTHQGLSSPVTKSFNRGEC
B12: VG9B416 (antibody, human IgG1, kappa)
heavy: not shown
light: EIVLTQSPGTLSLSPGDRATLSCRASQSVASSYLAWYQQKPGQSPRLLIYGASSRATGIPDRFSGSGSGTDFTLTISRLEPEDFAVYYCQQYGSSPPYTFGQGTKLEIKRTVAAPSVFIFPPSDEQLKSGTASVVCLLNNFYPREAKVQWKVDNALQSGNSQESVTEQDSKDSTYSLSSTLTLSKADYEKHKVYACEVTHQGLSSPVTKSFNRGEC
Throughout, for CD25+ (Vg9+ cells), flow staining: test concentration or dose not given here.
Throughout, for CD71+ (Vg9+ cells), flow staining: test concentration or dose not given here.
Throughout, for Granzyme B, Luminex (supernatant): unit not given here.
Throughout, for IL6, Luminex (supernatant): unit not given here.
Throughout, for TNFα, Luminex (supernatant): unit not given here.

The first assay deals with T1, TCR gamma/delta constant region (TRGDC). Description: cell-based or functional assay.
Consider B1, for which the “CD25+ (Vg9+ cells), flow staining” value was determined as 20.6%; the “CD71+ (Vg9+ cells), flow staining” value is 89.6%; the “Granzyme B; Luninex (supernatant)” value was found to be 1760; the “IFNγ; Luninex (supernatant)” value worked out at 352. Besides, the “IL6; Luninex (supernatant)” value is 123; the “TNFα; Luninex (supernatant)” value worked out at 215; the “Vg9 T cell %, flow staining” value came out at 3.8%.

As for B2, the “CD25+ (Vg9+ cells), flow staining” value came to 27.1%; the “CD71+ (Vg9+ cells), flow staining” value worked out at 92.4%; the “Granzyme B; Luninex (supernatant)” value stood at 2630; the “IFNγ; Luninex (supernatant)” value was 1460. The “IL6; Luninex (supernatant)” value amounted to 4900; the “TNFα; Luninex (supernatant)” value was determined as 138; the “Vg9 T cell %, flow staining” value was found to be 6.1%.

In the case of B3, the “CD25+ (Vg9+ cells), flow staining” value came to 33.3%; the “CD71+ (Vg9+ cells), flow staining” value amounted to 94.9%; the “Granzyme B; Luninex (supernatant)” value was 1540; the “IFNγ; Luninex (supernatant)” value was 560. The “IL6; Luninex (supernatant)” value came out at 279; the “TNFα; Luninex (supernatant)” value is 192; the “Vg9 T cell %, flow staining” value was 5.7%.

In the case of B4, the “CD25+ (Vg9+ cells), flow staining” value turned out to be 36.5%; the “CD71+ (Vg9+ cells), flow staining” value came to 98.2%; the “Granzyme B; Luninex (supernatant)” value amounted to 4390; the “IFNγ; Luninex (supernatant)” value was found to be 2120. The “IL6; Luninex (supernatant)” value came out at 590; the “TNFα; Luninex (supernatant)” value was 158; the “Vg9 T cell %, flow staining” value is 12.3%.

The next assay addresses T2, T cell receptor (TCR) Vγ9 (TRGV9). Description: cell-based or functional assay.
On to B5, for which the “CD25+ (Vg9+ cells), flow staining” value is 49.6%; the “CD71+ (Vg9+ cells), flow staining” value turned out to be 98.3%; the “Granzyme B, Luminex (supernatant)” value was determined as 3010; the “IFNγ, Luminex (supernatant)” value was 1360. For the same molecule, the “IL6, Luminex (supernatant)” value stood at 385; the “TNFα, Luminex (supernatant)” value is 4910; the “Vg9 T cell %, flow staining” value came to 5.2%.

For the molecule B6, the “CD25+ (Vg9+ cells), flow staining” value is 37.9%; the “CD71+ (Vg9+ cells), flow staining” value worked out at 95.8%; the “Granzyme B, Luminex (supernatant)” value came out at 3170; the “IFNγ, Luminex (supernatant)” value came out at 1150. Further, the “IL6, Luminex (supernatant)” value stood at 375; the “TNFα, Luminex (supernatant)” value is 5260; the “Vg9 T cell %, flow staining” value came to 4.4%.

As to B7, the “CD25+ (Vg9+ cells), flow staining” value was 50.9%; the “CD71+ (Vg9+ cells), flow staining” value was determined as 98.7%; the “Granzyme B, Luminex (supernatant)” value amounted to 1350; the “IFNγ, Luminex (supernatant)” value was 429. In addition, the “IL6, Luminex (supernatant)” value was determined as 161; the “TNFα, Luminex (supernatant)” value is 96; the “Vg9 T cell %, flow staining” value amounted to 16.1%.

B8: the “CD25+ (Vg9+ cells), flow staining” value was 20.4%; the “CD71+ (Vg9+ cells), flow staining” value stood at 70.6%; the “Granzyme B, Luminex (supernatant)” value was determined as 2160; the “IFNγ, Luminex (supernatant)” value worked out at 796. The “IL6, Luminex (supernatant)” value turned out to be 602; the “TNFα, Luminex (supernatant)” value was 3520; the “Vg9 T cell %, flow staining” value turned out to be 3.9%.

B9: the “CD25+ (Vg9+ cells), flow staining” value was 15.8%; the “CD71+ (Vg9+ cells), flow staining” value amounted to 86.9%; the “Granzyme B, Luminex (supernatant)” value came out at 1060; the “IFNγ, Luminex (supernatant)” value came out at 303. Also, the “IL6, Luminex (supernatant)” value was 166; the “TNFα, Luminex (supernatant)” value turned out to be 61; the “Vg9 T cell %, flow staining” value worked out at 3.7%.

On to B10, for which the “CD25+ (Vg9+ cells), flow staining” value worked out at 25.8%; the “CD71+ (Vg9+ cells), flow staining” value worked out at 91.6%; the “Granzyme B, Luminex (supernatant)” value came out at 2150; the “IFNγ, Luminex (supernatant)” value came to 1250. The “IL6, Luminex (supernatant)” value was determined as 816; the “TNFα, Luminex (supernatant)” value came out at 583; the “Vg9 T cell %, flow staining” value was 3%.

As to B11, the “CD25+ (Vg9+ cells), flow staining” value turned out to be 24.8%; the “CD71+ (Vg9+ cells), flow staining” value was 88.1%; the “Granzyme B, Luminex (supernatant)” value turned out to be 1490; the “IFNγ, Luminex (supernatant)” value was 476. For the same molecule, the “IL6, Luminex (supernatant)” value was determined as 219; the “TNFα, Luminex (supernatant)” value turned out to be 186; the “Vg9 T cell %, flow staining” value came to 4%.

For B12, the “CD25+ (Vg9+ cells), flow staining” value was 46.4%; the “CD71+ (Vg9+ cells), flow staining” value was 98.8%; the “Granzyme B, Luminex (supernatant)” value turned out to be 3390; the “IFNγ, Luminex (supernatant)” value was found to be 1180. Moreover, the “IL6, Luminex (supernatant)” value was found to be 225; the “TNFα, Luminex (supernatant)” value amounted to 87; the “Vg9 T cell %, flow staining” value was found to be 13.9%.
